Experimental findings from patent US20030125257A1, “Assay for identifying beta secretase inhibitors” (priority 2001, published 2003) are described below.

This assay concerns the target purified full-length human BACE with six C-terminal His residues, expressed in Sf9 insect cells (human) (UniProt P56817). The assay is described as follows: competitive radioligand binding assay, cholic acid against Tween-20 in the binding buffer.

Chain of purified full-length human BACE with six C-terminal His residues, expressed in Sf9 insect cells (human) (P56817 other isoform, or with tags, fused parts or gaps limits assumed): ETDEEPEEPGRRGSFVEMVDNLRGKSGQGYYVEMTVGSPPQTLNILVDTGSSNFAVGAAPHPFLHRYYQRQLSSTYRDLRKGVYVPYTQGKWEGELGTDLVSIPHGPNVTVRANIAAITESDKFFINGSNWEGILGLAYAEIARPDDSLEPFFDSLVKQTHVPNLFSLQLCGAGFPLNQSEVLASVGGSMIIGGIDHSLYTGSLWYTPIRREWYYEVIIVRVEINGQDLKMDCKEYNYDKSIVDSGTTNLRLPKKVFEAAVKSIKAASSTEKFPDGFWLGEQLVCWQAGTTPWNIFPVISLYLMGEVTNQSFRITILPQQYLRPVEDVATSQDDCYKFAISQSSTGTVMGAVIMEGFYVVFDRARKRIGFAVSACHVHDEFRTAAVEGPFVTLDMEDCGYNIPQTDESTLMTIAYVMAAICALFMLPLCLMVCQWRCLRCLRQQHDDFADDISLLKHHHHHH

“peptide H-4848 (Bachem), described in Nature, 1999, 402, 537” had a fold reduction of IC-50 with cholic acid compared to Tween-20 of 3 to 4 times.
